Measurements: publication PMC5228031, “CDK4/6-dependent activation of DUB3 regulates cancer metastasis through SNAIL1” (Nature Communications, 2017)

Target: T1, His-DUB3 (UniProt Q6R6M4 1-530)
T1 construct: cloned into PET28A; source: purified recombinant
T1 sequence (looked up): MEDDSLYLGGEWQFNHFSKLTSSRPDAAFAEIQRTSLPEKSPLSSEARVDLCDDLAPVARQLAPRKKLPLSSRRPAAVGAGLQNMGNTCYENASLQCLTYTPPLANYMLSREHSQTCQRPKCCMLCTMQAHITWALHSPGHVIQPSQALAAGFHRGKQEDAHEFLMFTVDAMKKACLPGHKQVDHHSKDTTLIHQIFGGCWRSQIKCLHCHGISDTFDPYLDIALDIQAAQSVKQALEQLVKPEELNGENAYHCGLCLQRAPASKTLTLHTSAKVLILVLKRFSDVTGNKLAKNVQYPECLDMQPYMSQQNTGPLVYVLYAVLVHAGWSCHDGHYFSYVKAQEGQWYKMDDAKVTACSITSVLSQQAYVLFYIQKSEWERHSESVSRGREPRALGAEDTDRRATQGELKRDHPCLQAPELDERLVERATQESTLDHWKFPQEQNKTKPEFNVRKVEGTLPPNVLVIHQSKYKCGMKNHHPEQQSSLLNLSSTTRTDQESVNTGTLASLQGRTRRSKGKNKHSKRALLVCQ
Assay: pull-down; purified recombinant GST or GST fusion protein and His-tagged protein incubated in vitro
Conditions: both partners purified

B1: GST-CDK4 (enzyme, UniProt P11802 1-303, looked up)
chain: MATSRYEPVAEIGVGAYGTVYKARDPHSGHFVALKSVRVPNGGGGGGGLPISTVREVALLRRLEAFEHPNVVRLMDVCATSRTDREIKVTLVFEHVDQDLRTYLDKAPPPGLPAETIKDLMRQFLRGLDFLHANCIVHRDLKPENILVTSGGTVKLADFGLARIYSYQMALTPVVVTLWYRAPEVLLQSTYATPVDMWSVGCIFAEMFRRKPLFCGNSEADQLGKIFDLIGLPPEDDWPRDVSLPRGAFPPRGPRPVQSVVPEMEESGAQLLLEMLTFNPHKRISAFRALQHSYLHKDEGNPE
notes: also called CDK4/6; source: purified recombinant
- binding result: binds
